The term Kd denotes a measure of binding affinity in units of concentration.

Results on 2 molecules are retold here after paper PMC10328077 (2023).

B1: recombinant N-terminal fragment apoE2(1–165) (domain or fragment)
chain: KVEQAVETEPEPELRQQTEWQSGQRWELALGRFWDYLRWVQTLSEQVQEELLSSQVTQELRALMDETMKELKAYKSELEEQLTPVAEETRARLSKELQAAQARLGADMEDVCGRLVQYRGEVQAMLGQSTEELRVRLASHLRKLRKRLLRDADDLQKCLAVYQAG
modifications: NT647 dye (Monolith RED-NHS labelling kit) in the MST; unlabelled in the ELISA and the cross-linking
B2: FH402Y, isolated from plasma of FH402Y homozygous healthy donors (natural protein)
chain: EDCNELPPRRNTEILTGSWSDQTYPEGTQAIYKCRPGYRSLGNVIMVCRKGEWVALNPLRKCQKRPCGHPGDTPFGTFTLTGGNVFEYGVKAVYTCNEGYQLLGEINYRECDTDGWTNDIPICEVVKCLPVTAPENGKIVSSAMEPDREYHFGQAVRFVCNSGYKIEGDEEMHCSDDGFWSKEKPKCVEISCKSPDVINGSPISQKIIYKENERFQYKCNMGYEYSERGDAVCTESGWRPLPSCEEKSCDNPYIPNGDYSPLRIKHRTGDEITYQCRNGFYPATRGNTAKCTSTGWIPAPRCTLKPCDYPDIKHGGLYHENMRRPYFPVAVGKYYSYYCDEHFETPSGSYWDHIHCTQDGWSPAVPCLRKCYFPYLENGYNQNYGRKFVQGKSIDVACHPGYALPKAQTTVTCMENGWSPTPRCIRVKTCSKSSIDIENGFISESQYTYALKEKAKYQCKLGYVTADGETSGSITCGKDGWSAQPTCIKSCDIPVFMNARTKNDFTWFKLNDTLDYECHDGYESNTGSTTGSIVCGYNGWSDLPICYERECELPKIDVHLVPDRKKDQYKVGEVLKFSCKPGFTIVGPNSVQCYHFGLSPDLPICKEQVQSCGPPPELLNGNVKEKTKEEYGHSEVVEYYCNPRFLMKGPNKIQCVDGEWTTLPVCIVEESTCGDIPELEHGWAQLSSPPYYYGDSVEFNCSESFTMIGHRSITCIHGVWTQLPQCVAIDKLKKCKSSNLIILEEHLKNKKEFDHNSNIRYRCRGKEGWIHTVCINGRWDPEVNCSMAQIQLCPPPPQIPNSHNMTTTLNYRDGEKVSVLCQENYLIQEGEEITCKDGRWQSIPLCVEKIPCSQPPQIEHGTINSSRSSQESYAHGTKLSYTCEGGFRISEENETTCYMGKWSSPPQCEGLPCKSPPEISHGVVAHMSDSYQYGEEVTYKCFEGFGIDGPAIAKCLGEKWSHPPSCIKTDCLSLPSFENAIPMGEKKDVYKAGEQVTYTCATYYKMDGASNVTCINSRWTGRPTCRDTSCVNPPTVQNAYIVSRQMSKYPSGERVRYQCRSPYEMFGDEEVMCLNGNWTEPPQCKDSTGKCGPPPPIDNGDITSFPLSVYAPASSVEYQCQNLYQLEGNKRITCRNGQWSEPPKCLHPCVISREIMENYNIALRWTAKQKLYSRTGESVEFVCKRGYRLSSRSHTLRTTCWDGKLEYPTCAKR

The target in assay [1] is FH402H, isolated from plasma of FH402H homozygous healthy donors (human, UniProt P08603 19-1231, Y402H). Briefly: MST.
The target of assay [2] is B1. The experiment in a line: MST.

On to B1, for which the affinity in assay [1], expressed as Kd, was 400 nM.

B2: the Kd in assay [2] was determined as 200 nM.
